Experiments:
mouse FcγRIII [1] = molecular target: T1, mouse FcγRIII (mouse, UniProt P08508 31-215); assay: SPR (Biacore T200); KD of H237-mIgG1/MRAL-k0 / KD of variant
T1 construct: Extracellular domain with C-terminal His tag; also called mFcγRIII; mFcgRIII
T1 chain: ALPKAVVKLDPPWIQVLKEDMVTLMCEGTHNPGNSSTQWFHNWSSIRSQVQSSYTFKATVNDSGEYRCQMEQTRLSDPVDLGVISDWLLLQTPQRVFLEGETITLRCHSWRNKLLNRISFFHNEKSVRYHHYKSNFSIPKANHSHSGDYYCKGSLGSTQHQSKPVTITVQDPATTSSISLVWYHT

mouse FcγRII [2] = molecular target: T2, mouse FcγRII (mouse, UniProt P08101 30-210); assay: as above
T2 construct: Extracellular domain with C-terminal His tag; also called mFcγRII; mFcgRII
T2 sequence: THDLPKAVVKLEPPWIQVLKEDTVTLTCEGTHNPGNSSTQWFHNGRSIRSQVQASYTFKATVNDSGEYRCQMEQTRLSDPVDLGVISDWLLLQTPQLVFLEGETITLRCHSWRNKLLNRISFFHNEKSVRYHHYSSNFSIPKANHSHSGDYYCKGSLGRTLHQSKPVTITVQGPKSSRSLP

mouse FcγRIII [3] = molecular target: T1, mouse FcγRIII; assay: SPR (Biacore T200); KD of H237-MB630/MRAL-k0 / KD of variant
mouse FcγRII [4] = molecular target: T2, mouse FcγRII; assay: as above

Row | Binder | relative mFcγRIII-binding activity (mIgG1 = 1) (mouse FcγRIII [1]) | relative mFcγRII-binding activity (mIgG1 = 1) (mouse FcγRII [2]) | Relative mFcγRIII-binding activity (MB630 = 1) (mouse FcγRIII [3]) | Relative mFcγRII-binding activity (MB630 = 1) (mouse FcγRII [4])
1 | MB827 (antibody, mouse IgG1, kappa, CH name; VH H237 + CH, L chain MRAL-k0; copies: 2 + 2) heavy: QVQLQESGPGLVKPSETLSLTCAVSGHSISHDHAWSWVRQPPGEGLEWIGFISYSGITNYNPSLQGRVTISRDNSKNTLYLQMNSLRAEDTAVYYCARSLARTTAMDYWGEGTLVTVSSAKTTPPSVYPLAPGSAAQTNSMVTLGCLVKGYFPEPVTVTWNSGSLSSGVHTFPAVLQSDLYTLSSSVTVPSSTWPSETVTCNVAHPASSTKVDKKIVPRDCGCKPCICEPNEVELVFIFPPKPKDVLTITLTPKVTCVVVDISKDDPEVQFSWFVDDVEVHTAQTQPREEQFNSTFRSVSELPIMHQDWLNGKEFKCRVNSAGFPAYIEKTISKTKGRPKAPQVYTIPPPKEQMAKDKVSLTCMITDFFPEDITVEWQWNGQPAENYKNTQPIMDTDGSYFVYSKLNVQKSNWEAGNTFTCSVLHEGLHNHHTEKSLSHSPGK light: not shown | 0.38 fold | 21.5 fold | 1.64 fold | 1.63 fold
2 | MB831 (antibody, mouse IgG1, kappa, CH name; VH H237 + CH, L chain MRAL-k0; copies: 2 + 2) heavy: QVQLQESGPGLVKPSETLSLTCAVSGHSISHDHAWSWVRQPPGEGLEWIGFISYSGITNYNPSLQGRVTISRDNSKNTLYLQMNSLRAEDTAVYYCARSLARTTAMDYWGEGTLVTVSSAKTTPPSVYPLAPGSAAQTNSMVTLGCLVKGYFPEPVTVTWNSGSLSSGVHTFPAVLQSDLYTLSSSVTVPSSTWPSETVTCNVAHPASSTKVDKKIVPRDCGCKPCICEPNEVELVFIFPPKPKDVLTITLTPKVTCVVVDISKDDPEVQFSWFVDDVEVHTAQTQPREEQFNSTFRSVSELPIMHQDWLNGKEFKCRVNSAAFPAFIERTISKTKGRPKAPQVYTIPPPKEQMAKDKVSLTCMITDFFPEDITVEWQWNGQPAENYKNTQPIMDTDGSYFVYSKLNVQKSNWEAGNTFTCSVLHEGLHNHHTEKSLSHSPGK light: not shown | 0.39 fold | 22.3 fold | 1.71 fold | 1.7 fold
3 | MB832 (antibody, mouse IgG1, kappa, CH name; VH H237 + CH, L chain MRAL-k0; copies: 2 + 2) heavy: QVQLQESGPGLVKPSETLSLTCAVSGHSISHDHAWSWVRQPPGEGLEWIGFISYSGITNYNPSLQGRVTISRDNSKNTLYLQMNSLRAEDTAVYYCARSLARTTAMDYWGEGTLVTVSSAKTTPPSVYPLAPGSAAQTNSMVTLGCLVKGYFPEPVTVTWNSGSLSSGVHTFPAVLQSDLYTLSSSVTVPSSTWPSETVTCNVAHPASSTKVDKKIVPRDCGCKPCICEPNEVELVFIFPPKPKDVLTITLTPKVTCVVVDISKDDPEVQFSWFVDDVEVHTAQTQPREEQFNSTFRSVSELPIMHQDWLNGKEFKCRVNSAAFPAYIYKTISKTKGRPKAPQVYTIPPPKEQMAKDKVSLTCMITDFFPEDITVEWQWNGQPAENYKNTQPIMDTDGSYFVYSKLNVQKSNWEAGNTFTCSVLHEGLHNHHTEKSLSHSPGK light: not shown | 0.09 fold | 5.2 fold | 0.4 fold | 0.4 fold
4 | MB830 (antibody, mouse IgG1, kappa, CH name; VH H237 + CH, L chain MRAL-k0; copies: 2 + 2) heavy: QVQLQESGPGLVKPSETLSLTCAVSGHSISHDHAWSWVRQPPGEGLEWIGFISYSGITNYNPSLQGRVTISRDNSKNTLYLQMNSLRAEDTAVYYCARSLARTTAMDYWGEGTLVTVSSAKTTPPSVYPLAPGSAAQTNSMVTLGCLVKGYFPEPVTVTWNSGSLSSGVHTFPAVLQSDLYTLSSSVTVPSSTWPSETVTCNVAHPASSTKVDKKIVPRDCGCKPCICEPNEVELVFIFPPKPKDVLTITLTPKVTCVVVDISKDDPEVQFSWFVDDVEVHTAQTQPREEQFNSTFRSVSELPIMHQDWLNGKEFKCRVNSAAFPAFIYKTISKTKGRPKAPQVYTIPPPKEQMAKDKVSLTCMITDFFPEDITVEWQWNGQPAENYKNTQPIMDTDGSYFVYSKLNVQKSNWEAGNTFTCSVLHEGLHNHHTEKSLSHSPGK light: not shown | 0.08 fold | 4.8 fold | 0.36 fold | 0.37 fold
5 | MB829 (antibody, mouse IgG1, kappa, CH name; VH H237 + CH, L chain MRAL-k0; copies: 2 + 2) heavy: QVQLQESGPGLVKPSETLSLTCAVSGHSISHDHAWSWVRQPPGEGLEWIGFISYSGITNYNPSLQGRVTISRDNSKNTLYLQMNSLRAEDTAVYYCARSLARTTAMDYWGEGTLVTVSSAKTTPPSVYPLAPGSAAQTNSMVTLGCLVKGYFPEPVTVTWNSGSLSSGVHTFPAVLQSDLYTLSSSVTVPSSTWPSETVTCNVAHPASSTKVDKKIVPRDCGCKPCICEPNEVELVFIFPPKPKDVLTITLTPKVTCVVVDISKDDPEVQFSWFVDDVEVHTAQTQPREEQFNSTFRSVSELPIMHQDWLNGKEFKCRVNSAGFPAPIERTISKTKGRPKAPQVYTIPPPKEQMAKDKVSLTCMITDFFPEDITVEWQWNGQPAENYKNTQPIMDTDGSYFVYSKLNVQKSNWEAGNTFTCSVLHEGLHNHHTEKSLSHSPGK light: not shown | 0.63 fold | 33.8 fold | 2.75 fold | 2.57 fold
6 | MB828 (antibody, mouse IgG1, kappa, CH name; VH H237 + CH, L chain MRAL-k0; copies: 2 + 2) heavy: QVQLQESGPGLVKPSETLSLTCAVSGHSISHDHAWSWVRQPPGEGLEWIGFISYSGITNYNPSLQGRVTISRDNSKNTLYLQMNSLRAEDTAVYYCARSLARTTAMDYWGEGTLVTVSSAKTTPPSVYPLAPGSAAQTNSMVTLGCLVKGYFPEPVTVTWNSGSLSSGVHTFPAVLQSDLYTLSSSVTVPSSTWPSETVTCNVAHPASSTKVDKKIVPRDCGCKPCICEPNEVELVFIFPPKPKDVLTITLTPKVTCVVVDISKDDPEVQFSWFVDDVEVHTAQTQPREEQFNSTFRSVSELPIMHQDWLNGKEFKCRVNSAGFPAPIYKTISKTKGRPKAPQVYTIPPPKEQMAKDKVSLTCMITDFFPEDITVEWQWNGQPAENYKNTQPIMDTDGSYFVYSKLNVQKSNWEAGNTFTCSVLHEGLHNHHTEKSLSHSPGK light: not shown | 0.49 fold | 28.4 fold | 2.14 fold | 2.16 fold
7 | MB833 (antibody, mouse IgG1, kappa, CH name; VH H237 + CH, L chain MRAL-k0; copies: 2 + 2) heavy: QVQLQESGPGLVKPSETLSLTCAVSGHSISHDHAWSWVRQPPGEGLEWIGFISYSGITNYNPSLQGRVTISRDNSKNTLYLQMNSLRAEDTAVYYCARSLARTTAMDYWGEGTLVTVSSAKTTPPSVYPLAPGSAAQTNSMVTLGCLVKGYFPEPVTVTWNSGSLSSGVHTFPAVLQSDLYTLSSSVTVPSSTWPSETVTCNVAHPASSTKVDKKIVPRDCGCKPCICEPNEVELVFIFPPKPKDVLTITLTPKVTCVVVDISKDDPEVQFSWFVDDVEVHTAQTQPREEQFNSTFRSVSELPIMHQDWLNGKEFKCRVNSAAFPAYIERTISKTKGRPKAPQVYTIPPPKEQMAKDKVSLTCMITDFFPEDITVEWQWNGQPAENYKNTQPIMDTDGSYFVYSKLNVQKSNWEAGNTFTCSVLHEGLHNHHTEKSLSHSPGK light: not shown | 0.45 fold | 25.3 fold | 1.94 fold | 1.92 fold

Reference: patent US20150203577A1 (Chugai, published 2015)
